These results are taken from patent US20250145673A1.

The term Kd denotes the free concentration of one partner at which half of the binding sites on the other are occupied at equilibrium, for simple one-to-one binding. Read a high Kd as weaker binding.

For assay [1], the target named is C3b (UniProt P01024). The experiment in a line: SPR, target amine-coupled to chip, single cycle kinetics, 1:1 Langmuir fit. (Surface plasmon resonance follows binding to a sensor surface in real time, without labels.)
For assay [2], the target named is C3b (UniProt P01024). The experiment in a line: ITC, polypeptide titrated into C3b; fit box in the lower panel. In general terms: Isothermal titration calorimetry measures the heat released or taken up as one component is titrated into another.
In assay [3] the target is C3b (UniProt P01024). The experiment in a line: ITC.
In assay [4] the target is C3b (UniProt P01024). The experiment in a line: ITC, binder titrated into target.

B1: polypeptide comprising the amino acid sequence of SEQ ID NO: 33 (designed binder)
chain: MVKVKFAATGEEKEVETSKIANVYRVGKDVLFSYDDQGKIGWGYVSEKDAPKELLDLLARAEREK
B1 returned a Kd with C3b [1] of 0.16 nM. Further, the Ka with C3b [2] is 7.95e+08 M⁻¹. This molecule had a Kd in the assay with C3b [3] of 1.3 nM. Also, in the assay with C3b [4], the -TΔS is 27.2 kJ/mol, the Kd worked out at 1.3 nM, the N amounted to 0.9 and the ΔG is -50.6 kJ/mol. Further, in the assay with C3b [4], the ΔH was -77.8 kJ/mol.

B2: polypeptide comprising the amino acid sequence of SEQ ID NO: 34 (designed binder)
chain: MVKVKFDATGEEKEVETSKISAVYRTGKDVLFSYDDQGKIGWGYVSEKDAPKELLDLLARAEREK
With B2, the Kd in the assay with C3b [1] was determined as 0.42 nM. For the same molecule, the Ka with C3b [2] is 1.4e+09 M⁻¹. In the assay with C3b [3], this molecule showed a Kd of 0.7 nM. In addition, in the assay with C3b [4], the -TΔS was 61.5 kJ/mol, the Kd is 0.7 nM, the N is 0.89 and the ΔG is -52.3 kJ/mol. In addition, in the assay with C3b [4], the ΔH was -114 kJ/mol.

B3: polypeptide having the amino acid sequence of SEQ ID NO: 27 (designed binder)
chain: MVKVKFEATGEEKEVDTSKIYQVYRSGKEVLFTYDDNGKTGWGYVSEKDAPKELLDMLARAEREK
B3 returned a dissociation constant Kd in the assay with C3b [1] of 1.92 nM. In the assay with C3b [2], this molecule showed a Ka of 3.88e+08 M⁻¹. The same molecule registered a Kd in the assay with C3b [3] of 2.6 nM. In addition, in the assay with C3b [4], the -TΔS amounted to 100 kJ/mol, the Kd worked out at 2.6 nM, the N was 0.95 and the ΔG was -49 kJ/mol. The ΔH with C3b [4] was -149 kJ/mol.
